# Biological target: recombinant mouse integrin αvβ3 (R&D Systems, 7889-AV-050) (mouse) (UniProt P43406)
# Test: SPR, mutant ICOSL immobilised, αvβ3 as analyte, 0.2 mM Ca2+ and 0.1 mM Mg2+, steady-state affinity fit
# recombinant mouse integrin αvβ3 (R&D Systems, 7889-AV-050) (mouse), sequence (P43406 31-988 limits assumed, chain 1 of 2): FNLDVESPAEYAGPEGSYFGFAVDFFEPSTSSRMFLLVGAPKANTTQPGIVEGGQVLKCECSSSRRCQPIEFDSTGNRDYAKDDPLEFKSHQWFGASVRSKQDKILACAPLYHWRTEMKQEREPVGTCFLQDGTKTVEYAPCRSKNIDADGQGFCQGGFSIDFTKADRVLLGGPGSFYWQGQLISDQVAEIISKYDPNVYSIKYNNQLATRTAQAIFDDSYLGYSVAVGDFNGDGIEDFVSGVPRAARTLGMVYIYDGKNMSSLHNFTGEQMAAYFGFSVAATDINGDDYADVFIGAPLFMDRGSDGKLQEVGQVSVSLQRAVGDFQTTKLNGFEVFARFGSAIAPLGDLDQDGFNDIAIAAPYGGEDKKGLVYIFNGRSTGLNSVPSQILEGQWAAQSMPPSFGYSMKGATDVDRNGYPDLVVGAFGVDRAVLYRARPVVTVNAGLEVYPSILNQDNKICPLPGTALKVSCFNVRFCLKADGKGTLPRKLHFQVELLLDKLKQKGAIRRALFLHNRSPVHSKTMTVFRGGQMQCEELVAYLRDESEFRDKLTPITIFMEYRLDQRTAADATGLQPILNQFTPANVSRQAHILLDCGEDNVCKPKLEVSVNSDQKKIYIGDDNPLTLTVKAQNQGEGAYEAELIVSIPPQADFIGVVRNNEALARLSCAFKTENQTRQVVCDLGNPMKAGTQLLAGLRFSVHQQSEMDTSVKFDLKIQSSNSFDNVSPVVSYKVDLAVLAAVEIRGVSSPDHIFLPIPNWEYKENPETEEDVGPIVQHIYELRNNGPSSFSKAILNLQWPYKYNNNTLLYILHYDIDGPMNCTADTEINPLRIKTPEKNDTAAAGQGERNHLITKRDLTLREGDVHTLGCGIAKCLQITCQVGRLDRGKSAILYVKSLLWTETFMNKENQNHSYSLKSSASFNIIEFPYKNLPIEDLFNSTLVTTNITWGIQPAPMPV
# recombinant mouse integrin αvβ3 (R&D Systems, 7889-AV-050) (mouse), sequence (O54890 26-717 limits assumed, chain 2 of 2, further chain): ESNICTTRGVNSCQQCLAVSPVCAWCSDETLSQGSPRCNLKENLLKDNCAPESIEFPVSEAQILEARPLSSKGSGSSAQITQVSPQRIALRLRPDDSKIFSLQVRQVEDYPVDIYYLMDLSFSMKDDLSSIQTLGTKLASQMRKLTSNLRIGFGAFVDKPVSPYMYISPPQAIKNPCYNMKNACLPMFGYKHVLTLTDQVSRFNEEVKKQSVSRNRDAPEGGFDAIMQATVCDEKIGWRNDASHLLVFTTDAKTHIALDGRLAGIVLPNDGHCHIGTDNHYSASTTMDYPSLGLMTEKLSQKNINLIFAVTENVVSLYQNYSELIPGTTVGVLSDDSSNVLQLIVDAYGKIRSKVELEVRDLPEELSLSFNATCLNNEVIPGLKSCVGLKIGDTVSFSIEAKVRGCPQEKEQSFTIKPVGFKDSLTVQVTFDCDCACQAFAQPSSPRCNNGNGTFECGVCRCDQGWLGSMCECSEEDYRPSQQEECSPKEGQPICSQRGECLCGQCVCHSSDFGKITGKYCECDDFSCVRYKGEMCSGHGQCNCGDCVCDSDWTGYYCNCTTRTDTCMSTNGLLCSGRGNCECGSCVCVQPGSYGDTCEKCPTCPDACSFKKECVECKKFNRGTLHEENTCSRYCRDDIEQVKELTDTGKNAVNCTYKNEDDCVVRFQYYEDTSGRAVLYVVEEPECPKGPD
substance,measurement,value
RGD-mutated mouse ICOSL protein (RGD motif replaced with AAA) (from UniProt Q9JHJ8 44-322) (ligand),Kd,830 µM

# From patent US20210208163A1
